# From article PMC12207366, “Protonated Glutamate and Aspartate Side Chains Can Recognize Phosphodiester Groups via Strong and Short Hydrogen Bonds in Biomacromolecular Complexes” (Angewandte Chemie (International Ed. in English), 2025)
# Key:
# [1] = unstructured peptides; cited from earlier work
# [2] = target: Glu190 (UniProt position 190, EALVEEEKTGD); test: ITC; settings: 20 °C, 200 mM NaCl, 50 mM Tris (pH 8.5-7.5), 50 mM BisTris (pH 7.0-6.0) or 50 mM Na-acetate (pH 5.5-4.0), each with 1 mM beta-mercaptoethanol
# [3] = target: Glu218 (UniProt position 218, RALAEEKGLEF); test: ITC; settings: 20 °C, 200 mM NaCl, 50 mM Tris (pH 8.5-7.5), 50 mM BisTris (pH 7.0-6.0) or 50 mM Na-acetate (pH 5.5-4.0), each with 1 mM beta-mercaptoethanol
# [4] = c-di-GMP-bound protein (pKab of the thermodynamic cycle)
# [5] = ligand-free protein (pKaf of the thermodynamic cycle)
compound,measurement,setting,value
N[C@@H](CCC(=O)O)C(=O)O [glutamate],pKa of side chain carboxylate group,[1],~4.4
PilF GSPII-B domain (PilF159-302) Q190E (Thermus thermophilus; Q190E),pKa,[2]; [4],7.5
same,pKa,[2]; [5],6.3
PilF GSPII-B domain (PilF159-302) Q218E (Thermus thermophilus; Q218E),pKa,[3]; [4],7.1
same,pKa,[3]; [5],5.9
